tested on: K4 kissing-loop RNA reporter; assay: apparent KD of K4 kissing-loop reporter; higher = weaker reporter binding; conditions: Eterna round: R107; input ligand: none
Description: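 RNA-MaP round R107: designed RNA switches with theophylline, tryptophan, arginine or FMN aptamers are transcribed on-chip within common flanks. They are titrated with a labelled K4 kissing-loop RNA reporter in RNA-MaP buffer (100 mM Tris pH 7.5, 80 mM KCl, 4 mM MgCl2), without ligand or with the indicated ligand. Median apparent KD per design.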
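Note: bound reporter read as fluorescence of individual clusters on recovered sequencing chips by microscopy, with normalized cluster intensities fitted with a binding model.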

Sequence | apparent KD of K4 kissing-loop reporter
UUAGUCUAGAGAGGAUAUCAGUGAUGUUGAUAUCAAGAUCUAAGAUAGAAUUCUAUCUUAGAUCAAUGAGAAGGCUCUAGACAUU [AK1.1 Exc FMN B] | 151 nM
GUGUCCUAGUCGGCCGCCACUGGGUGCAAAAUAGAAGGAGCAUUGCACAUCAGUGAUGUUGAUGUCAGGACCGGGACUAGGGUGU [KL-SSTryp-B5 Brourdwalk1] | 597 nM
GGAUCCACCAGUGAUGUUGGAAAAUACUCCAAGGAUAUGACGAAAGUCAGAAGGUGGUAGACUGGACAAAGUCCAGUCGGAUCCA [FmnA 27 #SwitchBubble #K4Early] | 527 nM
GGGAGCAAAGCUCCCGGAUGCUAUUACCAGUAGGAUAUCUGGAAACAGAGAAGGGCUAAGCCAGUGAUGUUGGUUUCGAGCAUCC | 754 nM
AACGUUUUGAGAAGGAGCGCGUUAAGCAGUGAUGUUGCUUUAUUAUAUUUACUACAUAUUUCGCAGGUAGGUCGCUCAAUACGUA [JR_Nu_SSArginiB_Sub025] | 148 nM
CGUAGCAGACGAAGGAGCGGCUACCUGAUUCAAGGUGAUGCUUGAGUGAUGUUCAGGUGUAGCCAGGUAGGUCGCGUCUGCUACG [Arg B Ex t9] | 164 nM
AAUAUCUAGUAUAUUUUUAAUAAAACAGAUACCAGUGAUAAUAGACACCCUUGGCAGCUGGUCGAGUGAUGUUCGUUUAUAUUAA [JR_SSTheophyA_Sub006] | 104 nM
CGCAAGCAGCCAGUGAUGUUGGCCGCCUUGCGAGGACCGGUACGGCCGCCACUCGAAGGCGGCUACUAGUAAACCGCCUAACGGA [KL-XTryp-A17] | 95.6 nM
AAUGCAUAGUGAAGGAGCGCGAUUUGCAGUGAUGUUGCAAAUUUAAACAAUCUUAUCUUUUCGCAGGUAGGUCGCACUAUGCAUA [JR_Nu_SSArginiB_Sub021] | 88.2 nM
UAACUCUUGCAGUGAUGUUGCAAGUAUGCUCAGGAUAUCAGGAAACUGAGAAGGGAGUUUCCUGAGCUUCUGCAAGAGCUCAGAA [KL-SSFMN-A6] | 547 nM
AAGUGGGAACGGCCCAAUAAAGUGUUUGUCAAGGAUAUUAUUCACAUAAGAAGGUGACAGACCACCUCCGGAGUGAUGUUUUGGA [theeternabot_sameState_KL_FMN_A_42] | 719 nM
AAAAUAAGCCAGUGAUGUUGGUAUGCAGAUACCAGCGACGAAAGUCGCCCUUGGCAGCUGUGGACGUACAAAAUAAGUACGUCCU | 329 nM
GGUCGAGUGAUGUUCGAUGUAGUGCAUUCAGAGGAUAUAGGAUGGGCUAGAAGGCUGAAAGGUGCUUCGAGUGAUGUUCGAGGAU [Exclusion FMN A GF 3] | 126 nM
UUGUUUGGUUGAGAGGUUGGGCGAGAUGAUACCAGUAGAUAAGAAUACCCUUGGCAGCAUAAGAAAGAUAUAGUGAUGUUGUAUA [SSTheophA.N] | 553 nM
AAGCAGUUCUCAAAGAGUACUGCAGGACAGCAGGAUAUAGUGAUGUUGAGAAGGGCUGUCCCGUCUGCAUGAAACAUGCAGACGA [Simply curious] | 808 nM
AAGCAGUCAGGAUCGAAGAUCCUGCAAUACCGAGGACCGGUACGGCCGCCACUCGGAGUGAUGUUCCGAAGACUGCAAAAUAAAA [#SwitchBubble 7] | 243 nM
GGUAGCAUGGCGGCCGCCACUGAGGCCCUAUGCGAGUCCUCUACAACCUAGUGAUGUUAGGCGUCCAGGACCGGGCCAUGCUACC | 71.2 nM
CGAUACGGAAAUACGUGUCUCUAUUCAGAAGGAGCGUGGUAGUACACAGGUAGGUCGCUGAAUUUUAAACUAGUGAUGUUAGUCU [JR_SSArginiA_Sub005] | 331 nM
UAUCUAUGCUCGGCCGCCACUAGGACCGGGUAGUCUCUAGUGAUGUUAGUCUCUACGGCCGCCACUAGGACCGGGAGUGUAGAUA [KL-SSTryp-B16 #DoubleAptamer] | 224 nM
CGCCGUAAGGCGGUCGCUCCCACUCCGGAAGGAGCGCCCGGAAGGGCAGGUAGGUCGCCGGAGUGAUGUUCCGGUGGAGGGACCG [#2 Exclusion - Arginine A Attempt #9 (Inspired by Omei)] | 365 nM
UCGCCGCUCACGGCCGCCACUAAGCCCAAGACCAGAGAGUGAUGUUCUAUCCACGUUUCAAUUUUUAGGACCGGGUGAAAGGCGA [theeternabot_sameState_KL_Trp_B_14] | 729 nM
UGUGUUGUUUUGAUGUUUGGUGUUGCAUGGCAGGAUAUCGUAGAGGCGAGAAGGGCUUGUGAGCGGUAUGAGUGAUGUUUGUAGG [bbgbmullin] | 406 nM

same assay, conditions: Eterna round: R107; input ligand: theophylline 20 uM

Sequence | apparent KD of K4 kissing-loop reporter
GGCGGCUGCGCGGAAGCGCAGCCGGCCGAUACCAGCGCGACGGCGCGCCCUUGGCAGCGGCGCCGAGUGAUGUUCGGCCUGCCGU [#2 Same State - Theophylline A Attempt #21 (HarryS)] | 124 nM
UGUGAUGUGUAGUGUAAUGUUUUGCGGGAUACCAGAGUCUUUUUAUUCCCUUGGCAGCUUGAGUGAUGUUUGAUGCUGUUCUUGU [llmdmullin] | 439 nM
AACUGUCAAGGACAACAUUACUGAGGUGAUACCAGGUUUGAGAGGAUCCCUUGGCAGCACCAACUUGCAGUGAUGUUGCAAGUAA [BrourdMod 15 - Jieux - Exclusion - Theophylline A] | 254 nM
CGCAGUGAUGUUGCGAGUAGCUACAGGGAAGGAGCGUGCUAGAGCACAGGUAGGUCGCCCACGCAGUGAUGUUGUGUUAAAGGGU [Exclusion Arginine A GF 12] | 149 nM
UAUAUAGUGACGGCCGCCACUAUUGUGAUGUUAUUGUUAGAGUGAUGUUUUGUUGUUUAAUUUUGUAGGACCGGGUUAUAUGUUA [xxzsmullin] | 530 nM
CCACAAUAUGGAAGGAGCGCCAGUGAUGUUGGUGCUUGCUUUAGGUAAGACCGGCCUAUUUGGCAGGUAGGUCGCCAUAUUCAAC [Ageat] | 89 nM
GUGGCGGGCCAAGGAUAUAUUUUGGAGUGAUGUUGUUCAUUUAUUUGAGCUAGUGAUGUUGGUCGAAUAGAAGGUGGCCCGCCAC [whbob_Ex_FMNB__2th220] | 44.7 nM
AAGCCAUACUCGGCCGCCACUUACUUCGUUGCAGUGAUGUUGCACACGAAUCCGUCAUAGCAAAUAAGGACCGGGAGAUAUACCG [theeternabot_exclusion_KL_Trp_B_19] | 87.5 nM
CCAGAAUGAUGAGGAUGAUAAAUUACUGAAGGAGCGCAUAUAGUUGCAGGUAGGUCGCGGUGAAUAAGUAUAGUGAUGUUAUACC [SSArgA.Ab] | 322 nM
GCUAUGGUAGGAAGGAGCGCUUGCUCGGUCAUAAGAGUGAUGUUCGAGACCGAGCAUUUAUAGCAGGUAGGUCGCCUACUAUAGC [Arginine B K4 7] | 256 nM
CCAGGAUGAUGAGGAUGAUAAAUUACUGAAGGAGCGCAUAUAGUUGCAGGUAGGUCGCGGUGAAUAAGUAUAGUGAUGUUAUACC [SSArgA.Aa] | 360 nM
UCUCCAAAGUCGGCCGCCACUCCGGGCCCUAUAAAUGGGCGCAGUGAUGUUGCGGCUAGGCCUCUGAGGACCGGGACUUUGUAGA [Estiorquin] | 129 nM
UGAUUGGCGAAAGUAGUGAUGUUACGAAUAUAGGAUAUUAGAGGAAUAAGAAGGAUAAAGGAGAAAUAGGUAAAUUGUUGGUUGG [whbob_SS_FMNA__2th169] | 128 nM
ACGUCACGUAUACUCGUGGUUUCGAUCGAUACCAGUAGCGAGAGUUACCCUUGGCAGCGACAUGAGUGAUGUUCAUGUGCGAAGA [KL-XTheo-A3 #analogue] | 104 nM
GGCGCAGUGAUGUUGCGGGCCGAGAGUGAUACCAGCCGUAUUUGUGGCCCUUGGCAGCGCAGAACCAGUGAUGUUGGUUACUUGG [Same State Theophylline A GF 22] | 467 nM
AAAAUAAAGGAGUGAUGUUCCAUAACGGAUACCAGCCACGAAAGUGGCCCUUGGCAGCUGUGCCAGUGGACGAAUAACGUCCACA [#OpenEnded 6 #StaticStem #K4Early] | 280 nM

Sequence | apparent KD of K4 kissing-loop reporter
UGUCAUUGGUCGGCCGCCACUAGGACCGGGUUUUGCCUAGUGAUGUUAGUAUGAACGGCCGCCACUAGGACCGGGACCGAUGACU [KL-SSTryp-B26 #DoubleAptamer] | 377 nM
UCGCCCGAUGGAGAUACCAGCAGUUGUGCAGUGAUGUUGCACAAGUACUCGCUCCAUUGCUGCCCUUGGCAGCUCCCGGCAAACA [Enraed] | 82.8 nM
AUAUUACUAUACGAUACCAGCCCUAACACUAGUGACGCGGUAAUAGUGAUGUUGUAACCCGGCCCUUGGCAGCGUAAUCAUGGAA [theeternabot_sameState_KL_Theo_B_7] | 524 nM
UCUGGAGUAUAUGAUACCAGCAGUGAGAGACAGGAAGUAUAGUGAUGUUAUAUGAGAGAAUGCCCUUGGCAGCGUGUGCGGUGGC [SSTheophylB.Q] | 81.4 nM
GCACUACAAUAAGGAUAUCAUAAAAUGGAGAGCGAGUGAUGUUCGCAGAGACACCUAUUUUUCCUAUGAGAAGGUAUUAACGCCG [theeternabot_sameState_KL_FMN_B_40] | 161 nM
UUAGUCUAGAGAGGAUAUCAGUGAUGUUGAUAUCAAGAUCUAAGAUAGAAUUCUAUCUUAGAUCAAUGAGAAGGCUCUAGACAUU [AK1.1 Exc FMN B] | 128 nM
GUGUCCUAGUCGGCCGCCACUGGGUGCAAAAUAGAAGGAGCAUUGCACAUCAGUGAUGUUGAUGUCAGGACCGGGACUAGGGUGU [KL-SSTryp-B5 Brourdwalk1] | 563 nM
GGAUCCACCAGUGAUGUUGGAAAAUACUCCAAGGAUAUGACGAAAGUCAGAAGGUGGUAGACUGGACAAAGUCCAGUCGGAUCCA [FmnA 27 #SwitchBubble #K4Early] | 537 nM
GGGAGCAAAGCUCCCGGAUGCUAUUACCAGUAGGAUAUCUGGAAACAGAGAAGGGCUAAGCCAGUGAUGUUGGUUUCGAGCAUCC | 575 nM
AACGUUUUGAGAAGGAGCGCGUUAAGCAGUGAUGUUGCUUUAUUAUAUUUACUACAUAUUUCGCAGGUAGGUCGCUCAAUACGUA [JR_Nu_SSArginiB_Sub025] | 152 nM
CGUAGCAGACGAAGGAGCGGCUACCUGAUUCAAGGUGAUGCUUGAGUGAUGUUCAGGUGUAGCCAGGUAGGUCGCGUCUGCUACG [Arg B Ex t9] | 180 nM
AAUAUCUAGUAUAUUUUUAAUAAAACAGAUACCAGUGAUAAUAGACACCCUUGGCAGCUGGUCGAGUGAUGUUCGUUUAUAUUAA [JR_SSTheophyA_Sub006] | 176 nM
CGCAAGCAGCCAGUGAUGUUGGCCGCCUUGCGAGGACCGGUACGGCCGCCACUCGAAGGCGGCUACUAGUAAACCGCCUAACGGA [KL-XTryp-A17] | 81.2 nM
AAUGCAUAGUGAAGGAGCGCGAUUUGCAGUGAUGUUGCAAAUUUAAACAAUCUUAUCUUUUCGCAGGUAGGUCGCACUAUGCAUA [JR_Nu_SSArginiB_Sub021] | 80.9 nM
UAACUCUUGCAGUGAUGUUGCAAGUAUGCUCAGGAUAUCAGGAAACUGAGAAGGGAGUUUCCUGAGCUUCUGCAAGAGCUCAGAA [KL-SSFMN-A6] | 375 nM
AAGUGGGAACGGCCCAAUAAAGUGUUUGUCAAGGAUAUUAUUCACAUAAGAAGGUGACAGACCACCUCCGGAGUGAUGUUUUGGA [theeternabot_sameState_KL_FMN_A_42] | 508 nM
